Consider four molecules from article PMC12543377, “https://orcid.org/0000-0003-0166-1786 Gustavsson Emil Data curation Formal analysis Investigation Methodology Project administration Validation Visualization Writing - original draft Writing - review”.

Data set [1] deals with the molecule itself. The experiment in a line: cryo-EM structure; OBP + mini-OriS*, dimer-dimer assembly dataset; same reconstitution; lower resolution; dimers to dimer-dimer assembly.
Data set [2] deals with T1, OBP (UL9 origin-binding protein), dimer (Herpes simplex virus 1, UniProt D3YPE9 1-851). The experiment in a line: cryo-EM; no nucleotide; 5 mM MgCl2; one dimer at Box 1; 20 mM HEPES pH 7.8, 150 mM NaCl, 5 mM MgCl2, 2 mM DTT, 5% glycerol; 2 uM OBP, protein:DNA 1:1.2, 37 C 30 min, then vitrified. To be noted: protein: recombinant; (StrepTrap purification; tag not described); chain copies: 2.

The target of data set [3] is T2, OBP (UL9 origin-binding protein), dimer-dimer assembly (Herpes simplex virus 1, UniProt D3YPE9 1-851). Kind of data set: cryo-EM (2D classes); two dimers, each apparently on two antiparallel OriS helices (Box 1 and Box 2); low frequency; 20 mM HEPES pH 7.8, 150 mM NaCl, 5 mM MgCl2, 2 mM DTT, 5% glycerol; 2 uM OBP, protein:DNA 1:1.2, 37 C 30 min, then vitrified. To be noted: protein: recombinant; (StrepTrap purification; tag not described); chain copies: 4.

In data set [4] the target is T1, OBP (UL9 origin-binding protein), dimer. The experiment in a line: cryo-EM; ATPgS, Mg2+; one dimer at Box 1; 20 mM HEPES pH 7.8, 150 mM NaCl, 5 mM MgCl2, 2 mM DTT, 5% glycerol; 2 uM OBP, protein:DNA 1:1.2, 37 C 30 min, then vitrified. To be noted: protein: recombinant; (StrepTrap purification; tag not described); chain copies: 2.
Data set [5] concerns the target OBP (UL9 origin-binding protein), monomer (Herpes simplex virus 1, UniProt D3YPE9 1-851). The experiment in a line: cryo-EM; monomer; preferred orientation, DNA path needs validation; 20 mM HEPES pH 7.8, 150 mM NaCl, 5 mM MgCl2, 2 mM DTT, 5% glycerol; 2 uM OBP, protein:DNA 1:1.2, 37 C 30 min, then vitrified. The following applies: protein: recombinant; (StrepTrap purification; tag not described); hairpin with 3' single-stranded tail.

Data set [6] deals with T2, OBP (UL9 origin-binding protein), …. The experiment in a line: cryo-EM; two dimers with putatively two mini-OriS* copies; 20 mM HEPES pH 7.8, 150 mM NaCl, 5 mM MgCl2, 2 mM DTT, 5% glycerol; 2 uM OBP, protein:DNA 1:1.2, 37 C 30 min, then vitrified. To be noted: protein: recombinant; (StrepTrap purification; tag not described); chain copies: 4; hairpin with 3' single-stranded tail.

B1: HSV-1 origin-binding protein (OBP), encoded by the UL9 gene (enzyme)
chain: MPFVGGAESGDPLGAGRPIGDDECEQYTSSVSLARMLYGGDLAEWVPRVHPKTTIERQQHGPVTFPNASAPTARCVTVVRAPMGSGKTTALIRWLREAIHSPDTSVLVVSCRRSFTQTLATRFAESGLVDFVTYFSSTNYIMNDRPFHRLIVQVESLHRVGPNLLNNYDVLVLDEVMSTLGQLYSPTMQQLGRVDALMLRLLRICPRIIAMDATANAQLVDFLCGLRGEKNVHVVVGEYAMPGFSARRCLFLPRLGTELLQAALRPPGPPSGPSPDASPEARGATFFGELEARLGGGDNICIFSSTVSFAEIVARFCRQFTDRVLLLHSLTPLGDVTTWGQYRVVIYTTVVTVGLSFDPLHFDGMFAYVKPMNYGPDMVSVYQSLGRVRTLRKGELLIYMDGSGARSEPVFTPMLLNHVVSSCGQWPAQFSQVTNLLCRRFKGRCDASACDTSLGRGSRIYNKFRYKHYFERCTLACLSDSLNILHMLLTLNCIRVRFWGHDDTLTPKDFCLFLRGVHFDALRAQRDLRELRCRDPEASLPAQAAETEEVGLFVEKYLRSDVAPAEIVALMRNLNSLMGRTRFIYLALLEACLRVPMATRSSAIFRRIYDHYATGVIPTINVTGELELVALPPTLNVTPVWELLCLCSTMAARLHWDSAAGGSGRTFGPDDVLDLLTPHYDRYMQLVFELGHCNVTDGLLLSEEAVKRVADALSGCPPRGSVSETDHAVALFKIIWGELFGVQMAKSTQTFPGAGRVKNLTKQTIVGLLDAHHIDHSACRTHRQLYALLMAHKREFAGARFKLRVPAWGRCLRTHSSSANPNADIILEAALSELPTEAWPMMQGAVNFSTL
notes: No viral strain is named; Tag removal is not mentioned; also called monomer A; monomer B; source: ExpiSf9 cells (recombinant baculovirus), purified (StrepTrap HP, eluted with desthiobiotin)
Usually stoichiometry N stands for the number of molecules, sites or subunits per partner or assembly. Consider B1, for which the “stoichiometry N” value in data set [1] turned out to be 4.

B2: OriS-6AT (dsDNA)
DNA 1: AAAAGAAGTGAGAACGCGAAGCGTTCGCACTTCGTCCCAATATATTATTAGGGCGAAGTGCGAGCACTGGCGCC
DNA 2: GGCGCCAGTGCTCGCACTTCGCCCTAATAATATATTGGGACGAAGTGCGAACGCTTCGCGTTCTCACTTCTTTT
For B2, the binding result in data set [2] is “binds”.

B3: OriS (dsDNA)
DNA 1: AAAAGAAGTGAGAACGCGAAGCGTTCGCACTTCGTCCCAATATATATATATTATTAGGGCGAAGTGCGAGCACTGGCGCC
DNA 2: GGCGCCAGTGCTCGCACTTCGCCCTAATAATATATATATATTGGGACGAAGTGCGAACGCTTCGCGTTCTCACTTCTTTT
Turning to B3, the binding result in data set [3] and in data set [4] was “binds” in each case.

B4: mini-OriS* (structured_DNA)
DNA: AAAAGAAGTGAGAACGCGAAGCGTTCGCACTTCGTTTTTTTTTT
Take B4: the binding result in data set [5] and in data set [6] was “binds” in each case.
